Reference: CN114480298A (MEGEE TRANSF MEDICAL RESEARCH SUZHOU CO LTD, dated 2022)

Tests used:
TF-TIGIT融合蛋白 (原核表达) = target: T1, TF-TIGIT融合蛋白 (原核表达) (human (TIGIT part)); assay: Western blot, 0.2 μg antigen per lane, primary antibody 0.2 µg/mL
T1 construct: also called TF-TIGIT蛋白; 原核表达的TF-TIGIT蛋白
T1 chain: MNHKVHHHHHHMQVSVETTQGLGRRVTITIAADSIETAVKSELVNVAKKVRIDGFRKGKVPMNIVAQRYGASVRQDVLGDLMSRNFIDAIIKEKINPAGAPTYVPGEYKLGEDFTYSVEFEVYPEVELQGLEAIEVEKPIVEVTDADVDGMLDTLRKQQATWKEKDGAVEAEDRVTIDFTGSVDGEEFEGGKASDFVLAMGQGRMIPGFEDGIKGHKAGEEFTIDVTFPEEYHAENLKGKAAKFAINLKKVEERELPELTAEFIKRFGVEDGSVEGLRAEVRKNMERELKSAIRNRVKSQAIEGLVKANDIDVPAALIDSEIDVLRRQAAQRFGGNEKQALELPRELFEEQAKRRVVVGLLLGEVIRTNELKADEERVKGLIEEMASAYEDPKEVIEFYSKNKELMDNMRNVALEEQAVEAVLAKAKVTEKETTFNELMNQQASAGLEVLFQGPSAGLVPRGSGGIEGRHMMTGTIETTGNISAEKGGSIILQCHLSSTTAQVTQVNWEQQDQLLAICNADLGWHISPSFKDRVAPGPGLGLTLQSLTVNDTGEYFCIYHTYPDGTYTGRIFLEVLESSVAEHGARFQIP

[1] = target: T2, 人TIGIT (人体组织细胞膜上表达的TIGIT蛋白) (human, UniProt Q495A1 22-244); assay: immunohistochemistry on FFPE human tissue, primary antibody 3.5 μg/mL
T2 construct: whole, on cells
T2 sequence (looked up): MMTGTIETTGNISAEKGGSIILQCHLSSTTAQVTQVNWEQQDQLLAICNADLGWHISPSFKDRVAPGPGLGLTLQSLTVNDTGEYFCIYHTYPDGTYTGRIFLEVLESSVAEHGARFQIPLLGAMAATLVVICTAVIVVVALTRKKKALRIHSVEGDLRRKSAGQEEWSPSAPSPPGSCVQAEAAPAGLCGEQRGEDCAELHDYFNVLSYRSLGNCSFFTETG

binding result (TF-TIGIT融合蛋白 (原核表达)): binds
binding result [1]: binds
B1: 抗TIGIT单克隆抗体MJ12-30 (antibody, mouse IgG1, kappa, V domains shown)
VH: EVKLEQSGGVLVQPGGSRKLSCAASGFTFHSFGMHWVRQAPEKGLEWVAYISSGGSTIFYADTVKGRFTISRDNPKNTLFLQMTSLRSEDTAMYYCAGSDHGNLGYWGQGTTLTVSS
VL: DIVLTQSPLSLSVSLGDQASISCRSSQSILHSGGNTYLDWFLQRPGQSPKLLIYKVSNRISGVPDRFSGSGAGTDFTLKISRVEAEDLGVYYCFQGNHVPPTFGGGTKLEIKR
notes: full chains used here; also called 鼠抗人TIGIT单克隆抗体杂交瘤细胞系MJ12-30 (CGMCC No.45102) 分泌的抗体
